Results published in patent US20150246947A1 (BAXALTA, published 2015).
Values joined by “and” are separate entries in the source; they are usually repeats but may differ in a detail not shown here. Identical values can stand only once. Like-named read-outs stand apart in the source and are kept apart here. Non-standard residues stand in square brackets, D forms with d. Tle = CC(C)(C)[C@H](N)C(=O)O

T1: human Protein S (human, UniProt P07225 42-676)
T1 construct: Called 'full length Protein S' / 'human full-length Protein S'; It was coated on plates (ELISA), Eu-labeled (LANCE) or immobilized on a chip (Biacore); also called PS; full length Protein S
T1 sequence: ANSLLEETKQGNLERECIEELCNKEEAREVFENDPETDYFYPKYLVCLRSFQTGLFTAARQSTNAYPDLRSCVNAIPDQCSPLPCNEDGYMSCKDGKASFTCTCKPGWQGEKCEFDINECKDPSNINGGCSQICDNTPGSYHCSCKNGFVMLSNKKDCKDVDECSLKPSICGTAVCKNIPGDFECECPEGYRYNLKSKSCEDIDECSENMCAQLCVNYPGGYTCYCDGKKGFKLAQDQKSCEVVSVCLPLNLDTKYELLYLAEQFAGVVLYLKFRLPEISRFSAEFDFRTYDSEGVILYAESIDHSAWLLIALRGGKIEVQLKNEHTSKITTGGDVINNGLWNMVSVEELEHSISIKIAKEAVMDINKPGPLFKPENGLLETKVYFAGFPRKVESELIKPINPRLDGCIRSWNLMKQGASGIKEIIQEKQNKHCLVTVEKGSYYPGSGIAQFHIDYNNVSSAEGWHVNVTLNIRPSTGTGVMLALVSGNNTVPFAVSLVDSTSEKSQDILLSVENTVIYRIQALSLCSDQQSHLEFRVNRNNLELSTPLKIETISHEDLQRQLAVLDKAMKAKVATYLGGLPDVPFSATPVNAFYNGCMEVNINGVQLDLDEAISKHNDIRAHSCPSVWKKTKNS

T2: human Protein S (UniProt P07225 42-676)
T2 chain: T1 sequence

B1: JBS3202 (peptide)
peptide: Ac-TGL[Tle]SAGWYDYNFDTYREFT-NH2
SMILES: CC(=O)N[C@H](C(=O)NCC(=O)N[C@@H](CC(C)C)C(=O)N[C@H](C(=O)N[C@@H](CO)C(=O)N[C@@H](C)C(=O)NCC(=O)N[C@@H](Cc1c[nH]c2ccccc12)C(=O)N[C@@H](Cc1ccc(O)cc1)C(=O)N[C@@H](CC(=O)O)C(=O)N[C@@H](Cc1ccc(O)cc1)C(=O)N[C@@H](CC(N)=O)C(=O)N[C@@H](Cc1ccccc1)C(=O)N[C@@H](CC(=O)O)C(=O)N[C@H](C(=O)N[C@@H](Cc1ccc(O)cc1)C(=O)N[C@@H](CCCNC(=N)N)C(=O)N[C@@H](CCC(=O)O)C(=O)N[C@@H](Cc1ccccc1)C(=O)N[C@H](C(N)=O)[C@@H](C)O)[C@@H](C)O)C(C)(C)C)[C@@H](C)O

How the values were obtained:
human Protein S [1] = biological target: T1, human Protein S; assay: Biacore and LANCE IC50
human Protein S [2] = biological target: T2, human Protein S; assay: LANCE competition
How it was run: (§1)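 In this LANCE homogeneous time-resolved FRET competition assay, europium-labelled Protein S, ULight-labelled streptavidin and a biotinylated tracer peptide were combined with unlabelled test peptide titrated in three-fold steps. The 50 µl reactions held final concentrations of 10 nM Protein S, 100 nM streptavidin and 300 nM tracer, or 2 nM Protein S and 60 nM tracer on a Tecan F500. After 1 hour at room temperature, signals were read at Ex 340 nm and Em 665 nm. IC50 was determined by non-linear regression of the emission signals.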

human Protein S [3] = biological target: T1, human Protein S; assay: LANCE TR-FRET competition; Eu-labeled Protein S; competitor tracer JBS0684
Protocol: Peptides also were characterized in a competition, homogenous europium-based TR-FRET assay (LANCE IC50 assay) using JBS0684 as a tracer (i.e., competitor for Protein S binding). The following reagents were mixed together in a Perkin-Elmer ProxiPlate MTP well (indicated concentration is the final concentration): Eu-labeled Protein S (10 nM), Ulight™-labeled Streptavidin (100 nM), tracer (JBS0684 (300 nM)), and peptide (titrated in three-fold dilution steps). The final volume was 50 μl/well. The reaction mix was incubated for 1 hour at room temperature, then the fluorescence emission at 665 nm was recorded on a multi-mode reader (SpectraMax® M5, Molecular Devices) using the following instrument settings: Ex 340 nm, Em 665 nm, delay 50 μsec, integration 100 μsec, reads 100. Binding of tracer peptides to soluble europium-labeled Protein S was detected by Streptavidin labeled with an acceptor fluorophor (ULight™). Inhibition of tracer-binding to Protein S by a non-biotinylated peptide results in a decrease of TR-FRET between the Eu-labeled Protein S and ULight™-labeled Streptavidin. IC50 values were obtained from peptide titration curves at constant tracer concentration using non-linear regression of the fluorescence emission signals at 665 nm.
Several peptides having multiple substitutions in the JBS2572 amino acid sequence were synthesized and evaluated using LANCE IC50 and CAT assays described above. For the assays, pooled normal plasma was supplemented with 3 nM APC and triggered with 6 pM TF, and 15 μM phospholipids (DOPC/POPS 80/20). Stock APC was diluted with TF-PL-MIX to 24 nM (plasma concentration: 3 nM).

human Protein S [4] = biological target: T1, human Protein S; assay: cell-based or functional assay
human Protein S [5] = biological target: T2, human Protein S; assay: LANCE competition
How it was run: as §1

human Protein S [6] = biological target: T2, human Protein S; assay: LANCE competition
How it was run: as §1

Binder	binding result (human Protein S [1])	IC50 (human Protein S [2]) [nM]	IC50 (human Protein S [3]) [nM]	CAT EC50 (human Protein S [4]) [nM]	IC50 (human Protein S [5])	IC50 (human Protein S [6]) [nM]
Ac-EYYVSAGWYDYNNDIYYEFE-NH2 [JBS3218]	binds	0.9				
Ac-TGLVSAGWYDYNNDTYREFT-NH2 [JBS3194]		2	1.8	122		
Ac-HIYVTAGWYDYNTDTYHEFE-NH2 [JBS3284]	binds				1.3 nM	
Ac-EVIVSAGWYDYNNDIYYEFW-NH2 [JBS3274]	binds	1				
Ac-EYYVSAGWYDYMTDTYTEFE-NH2 [JBS3235]	binds	1.4				
Ac-EYYVTAGWYDYNTDTYYEFE-NH2 [JBS3232]	binds	0.9				
Ac-EGYVSAGWYDYNQDIYFEFA-NH2 [JBS3260]	binds				1.6 nM	
Ac-TGLVEAGWYDYNFDVYREFT-NH2 [JBS3193]		2.7	2.5	116		
Ac-EYYVSAGWYDYNTDTYYEFT-NH2 [JBS3314]	binds				0.8 nM	
Ac-YVEVSAGWYDYNTDTYSEFW-NH2 [JBS3281]	binds				1.7 nM and 2.3 nM	
B1			1.6	129		
Ac-TGL[Tle]SAGWYDYNFDHYMEFT-NH2 [JBS3203]			1.8	127		
Ac-YGIVSAGWYDMNNDYYFEFY-NH2 [JBS3258]	binds				0.8 nM and 0.9 nM	
Ac-YGIVSAGWYDYNTDTYYEFY-NH2 [JBS3221]	binds					0.6
Ac-TGLVSAGWYDYNNDVYREFT-NH2 [JBS3195]		2.1	2	139		
Ac-YGLVEAGWYDYNNDTYMEFT-NH2 [JBS3201]		1.8	1.9	127		
Ac-TGLVSAGWYDYNFDTYMEFT-NH2 [JBS3186]			2.6	176		
Ac-TGLVEAGWYDYNFDTYREFT-NH2 [JBS3192]			2.8	117		
Ac-YGLVSAGWYDYNFDVYREFT-NH2 [JBS3191]			1.6	147		
Ac-TGLVEAGWYDYNFDHYMEFT-NH2 [JBS3197]			6.1	146		
Ac-TGLVSAGWYDYNFDVYTEFT-NH2 [JBS3189]			5	281		
Ac-TGLVSAGWYDYNNDHYMEFT-NH2 [JBS3198]			2.5	149		
Ac-TGLVSAGWYDYNFDTYTEFT-NH2 [JBS3188]			2.9	155		
Ac-YGLVSAGWYDYNFDTYREFT-NH2 [JBS3190]			1.6	130		
Ac-EYYVEAGWYEYNTDNYYPFE-NH2 [JBS3236]	binds	2.6				
Ac-ESYVSAGWYDYNTDTYYEFF-NH2 [JBS3223]	binds	0.7				
Ac-DNYVSAGWYDYNTDTYYEFY-NH2 [JBS3297]	binds				1 nM	
Ac-DVHVSAGWYDYNKDIYYEFT-NH2 [JBS3296]	binds	2.2				
Ac-YGLVSAGWYDYNFDHYMEFT-NH2 [JBS3196]		2.5	2.2	155		
